{"source": "patent US7538262B2", "about": "“GDC-2 genes conferring herbicide resistance” (Athenix Corporation, priority 2003, dated 2009)", "molecules": {"B1": {"name": "GDC-2: glyphosate resistance-conferring decarboxylase protein (SEQ ID NO:3), acetolactate synthase homologue from strain ATX6837; purified as 6× His-tagged protein (protein)", "chain": "MLRSRQASKALRALGQARHFTSTTQPAAVQAPRKVASGQRNQATAATATSAAPNVRATPSPAFNAEEQQQQKHSHVQPLVNPQKSDMDESFIGKTGGEIFHEMMLRQGVKHIFGYPGGAILPVFDAIYNSKHFDFILPRHEQGAGHMAEGYARASGKPGVVLVTSGPGATNVVTPMQDALSDGTPLVVFCGQVPTSAIGSDAFQEADVVGISRACTKWNVMVKNVAELPRRINEAFEIATSGRPGPVLVDLPKDVTAGILRRAIPTETALPALPSAASRAAMESSRKHLEHTIKRVADLVNKAKQPVIYAGQGIIQSEGGPELLKELADKASIPVTTTLQGLGGFDELDEKSLHMLGMHGSAYANMAMQEADLIIALGARFDDRVTLNVAKFAPGARAAAAEKRGGIVHFEVMPKNINKVVQATEAVEGNVGSNLKLLLPEVQAKTMDDRKEWFGKINEWKKKWPLSHYERAERHGLIKPQTLIEELSKLTADRKDKTYIATGVGQHQMWTAQHFRWRHPRSMITSGGLGTMGFGLPAAIGAKVAQPDALVFDIDGDASFGMTLTELATAAQFNIGVKVIVLNNEEQGMVTQWQNLFYEDRYAHTHQVNPDFMKLAESMRVQGRRCVDPEDVVDSLKWLINTDGPALLEVVTDKKVPVLPMVPAGSALHEFLVFDGEKDKKRRELMRERTSGLHG", "modifications": "6xHis tag; Fungal isolate from soil sample", "notes": "purified as 6× His-tagged protein"}}, "key": {"[1]": {"test": "Assay of GDC-2 acetolactate synthase activity (acetoin colorimetric detection)", "format": "biochemical", "conditions": "50 mM pyruvate, 1 mM TPP, 10 mM MgCl2, 0.01 mM FAD, pH 7.0, 2 hours at 37° C.", "procedure": "Acetolactate synthases are decarboxylating enzymes that condense two pyruvate molecules to form acetolactate with the release of a CO2 moiety from one of the pyruvate substrates. In the detection of the enzymatic reaction described by Pang and Duggleby (Pang and Duggleby (1999) Biochemistry 18:5222-5231), the product acetolactate is converted to acetoin by incubation with 1% H2SO4 for 15 minutes at 60° C. followed by neutralization with KOH. The acetoin is then detected as described by Westerfeld (Westerfeld (1945) J. Biol. Chem.161:495-502), using 0.15% creatine and 1.5% alpha-naphthol (dissolved in 2.5 N NaOH). The red colored reaction product is quantified by absorbance at 525 nm.\nSamples containing either 5 μg or 10 μg of GDC-2 were incubated in 50 mM pyruvate, 1 mM […] pyrophosphate, 10 mM MgCl2, 0.01 mM Flavin adenine dinucleotide (FAD), 100 mM potassium phosphate buffer pH 7.0 (total reaction volume of 50 μl) for 2 hours at 37° C. The reaction was stopped by the addition of 1 μl of 50% sulfuric acid (H2SO4) and incubated at 60° C. for 15 minutes. The reaction was neutralized by the addition of 30 μl of 1 N KOH followed by the addition of 10 μl of 1.5% creatine and 10 μl of 15% alpha-napthol dissolved in 2.5 N NaOH. The red colored reaction product was quantified by absorbance at 525 nm."}, "[2]": {"test_system": "ΔaroA E. coli", "test": "Genetic complementation of aroA mutation in E. coli", "format": "cell-based", "conditions": "ΔaroA E. coli transformed with pAX473; M63 alone", "excerpt": "The E. coli aroA gene codes for EPSP synthase, the target enzyme for glyphosate. […] However, genes encoding EPSPS activity can restore the ability to grow […] upon aroA mutant E. coli strains. Thus, a test for genetic complementation of an aroA mutant is a highly sensitive method to test if a gene is capable of functioning as an EPSPS in E. coli. Such tests for gene function by genetic complementation are known in the art.\nA deletion of the aroA gene was created in E. coli XL-1 MRF′ (Stratagene) by PCR/recombination methods known in the art and outlined by Datsenko and Wanner, (2000) Proc. Natl. Acad. Sci. USA 97:6640-6645. This system is based on the Red system that allows for chromosomal disruptions of targeted sequences. A large portion (1067 nt of the 1283 nt) of the aroA coding region was disrupted by the engineered deletion.\nThe ability of an EPSPS to complement the mutant phenotype of ΔaroA was confirmed. Clone pAX482, an E. coli expression vector containing the wild-type E. coli aroA gene, was transformed into ΔaroA, and transformed cells were selected. These cells (containing a functional aroA gene residing on a plasmid) were then plated on LB media, M63, and M63 with amino acid supplements. […]"}}}
{"molecule": "B1", "values": [{"measurement": "Absorbance 525 nm (acetolactate synthase activity)", "setting": "[1]; 5 μg GDC-2", "value": 1.99}, {"measurement": "Absorbance 525 nm (acetolactate synthase activity)", "setting": "[1]; 10 μg GDC-2", "value": 3.13}, {"measurement": "Complementation of the aroA mutation (growth on M63 minimal media lacking aromatic amino acids)", "setting": "[2]", "value": "not capable of complementing the aroA mutation"}]}
